Measured values: the supplement of paper PMC5998384

Experiments:
HeLa Kyoto [1] = assay: solubility in G1/S (NP-40 vs SDS abundance) (log2 ratio); higher = more soluble; conditions: cell cycle stage: G1/S
HeLa Kyoto [2] = assay: solubility change mitosis vs G1/S (difference of NP-40 vs SDS log2 ratios) (log2 ratio difference); higher = more soluble in mitosis
HeLa Kyoto [3] = assay: thermal stability score vs G1/S (z-score of summed log2 fold changes over temperatures); higher = more thermally stable than in G1/S
HeLa Kyoto [4] = assay: melting temperature (median over replicates), in situ; higher = more thermally stable
[5] = cell cycle stage: early G1 (4.5 h after nocodazole release)
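Wherever melting temperature (median over replicates), in situ is given: HeLa Kyoto cells synchronized by double thymidine or nocodazole block, proteins quantified by TMT10plex mass spectrometry, three independent biological replicates.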
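Wherever solubility change mitosis vs G1/S (difference of NP-40 vs SDS log2 ratios) is given: synchronized HeLa Kyoto cells (double thymidine block for G1/S, nocodazole release for mitosis), protein amounts in NP-40 versus SDS lysates quantified by mass spectrometry, three biological replicates.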
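Wherever solubility in G1/S (NP-40 vs SDS abundance) is given: HeLa Kyoto cells arrested at G1/S by double thymidine block, proteins quantified by TMT10plex mass spectrometry in mild NP-40 versus SDS extracts, three biological replicates.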
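Wherever thermal stability score vs G1/S (z-score of summed log2 fold changes over temperatures) is given: synchronized HeLa Kyoto cells, proteins quantified by TMT10plex mass spectrometry, three biological replicates, mitosis taken 0.5 h after nocodazole release, G1/S directly after double thymidine block.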

Sequence of MFSD12 (chain, as listed by the source): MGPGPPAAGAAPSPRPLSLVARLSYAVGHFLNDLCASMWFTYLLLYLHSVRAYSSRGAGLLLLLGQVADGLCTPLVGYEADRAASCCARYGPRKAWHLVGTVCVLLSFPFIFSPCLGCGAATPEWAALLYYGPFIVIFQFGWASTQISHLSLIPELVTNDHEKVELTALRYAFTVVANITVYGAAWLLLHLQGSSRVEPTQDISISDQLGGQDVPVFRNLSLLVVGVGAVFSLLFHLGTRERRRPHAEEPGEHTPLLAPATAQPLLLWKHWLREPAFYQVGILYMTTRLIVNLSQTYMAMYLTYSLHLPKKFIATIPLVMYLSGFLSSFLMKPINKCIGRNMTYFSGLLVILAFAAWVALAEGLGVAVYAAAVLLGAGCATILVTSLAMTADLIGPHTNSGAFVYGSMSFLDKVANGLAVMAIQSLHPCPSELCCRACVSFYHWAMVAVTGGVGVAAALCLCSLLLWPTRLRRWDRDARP

Substance | solubility in G1/S (log2) (HeLa Kyoto [1]) | solubility change mitosis (log2) (HeLa Kyoto [2]) | thermal stability score (HeLa Kyoto [3]; [5]) | thermal stability score (HeLa Kyoto [3]; cell cycle stage: mitosis) | melting temperature (HeLa Kyoto [4]; cell cycle stage: G1/S) | melting temperature (HeLa Kyoto [4]; cell cycle stage: mitosis)
MAAPKGSLWVRTQLGLPPLLLLTMALAGGSGTASAEAFDSVLGDTASCHRACQLTYPLHTYPKEEELYACQRGCRLFSICQFVDDGIDLNRTKLECESACTEAYSQSDEQYACHLGCQNQLPFAELRQEQLMSLMPKMHLLFPLTLVRSFWSDMMDSAQSFITSSWTFYLQADDGKIVIFQSKPEIQYAPHLEQEPTNLRESSLSKMSYLQMRNSQAHRNFLEDGESDGFLRCLSLNSGWILTTTLVLSVMVLLWICCATVATAVEQYVPSEKLSIYGDLEFMNEQKLNRYPASSLVVVRSKTEDHEEAGPLPTKVNLAHSEI [TMEM59] | 0.0662 | 0.0194 | 0.0515 | -0.215 | 54.8 °C | 53.1 °C
MADGQVAELLLRRLEASDGGLDSAELAAELGMEHQAVVGAVKSLQALGEVIEAELRSTKHWELTAEGEEIAREGSHEARVFRSIPPEGLAQSELMRLPSGKVGFSKAMSNKWIRVDKSAADGPRVFRVVDSMEDEVQRRLQLVRGGQAEKLGEKERSELRKRKLLAEVTLKTYWVSKGSAFSTSISKQETELSPEMISSGSWRDRPFKPYNFLAHGVLPDSGHLHPLLKVRSQFRQIFLEMGFTEMPTDNFIESSFWNFDALFQPQQHPARDQHDTFFLRDPAEALQLPMDYVQRVKRTHSQGGYGSQGYKYNWKLDEARKNLLRTHTTSASARALYRLAQKKPFTPVKYFSIDRVFRNETLDATHLAEFHQIEGVVADHGLTLGHLMGVLREFFTKLGITQLRFKPAYNPYTEPSMEVFSYHQGLKKWVEVGNSGVFRPEMLLPMGLPENVSVIAWGLSLERPTMIKYGINNIRELVGHKVNLQMVYDSPLCRLDAEPRPPPTQEAA [FARSA] | 0.0439 | -0.0944 | 0.422 | 0.356 | 50.2 °C | 50.4 °C
MASCAEPSEPSAPLPAGVPPLEDFEVLDGVEDAEGEEEEEEEEEEEDDLSELPPLEDMGQPPAEEAEQPGALAREFLAAMEPEPAPAPAPEEWLDILGNGLLRKKTLVPGPPGSSRPVKGQVVTVHLQTSLENGTRVQEEPELVFTLGDCDVIQALDLSVPLMDVGETAMVTADSKYCYGPQGRSPYIPPHAALCLEVTLKTAVDGPDLEMLTGQERVALANRKRECGNAHYQRADFVLAANSYDLAIKAITSSAKVDMTFEEEAQLLQLKVKCLNNLAASQLKLDHYRAALRSCSLVLEHQPDNIKALFRKGKVLAQQGEYSEAIPILRAALKLEPSNKTIHAELSKLVKKHAAQRSTETALYRKMLGNPSRLPAKCPGKGAWSIPWKWLFGATAVALGGVALSVVIAARN [FKBP8] | 0.229 | -0.0477 | 1.22 | 3 | 48.7 °C | 49.5 °C
AHCTF1 | -1.38 | 1.06 | -1.63 | -0.353 | 50.7 °C | 50.5 °C
MSSECDGGSKAVMNGLAPGSNGQDKATADPLRARSISAVKIIPVKTVKNASGLVLPTDMDLTKICTGKGAVTLRASSSYRETPSSSPASPQETRQHESKPGLEPEPSSADEWRLSSSADANGNAQPSSLAAKGYRSVHPNLPSDKSQDATSSSAAQPEVIVVPLYLVNTDRGQEGTARPPTPLGPLGCVPTIPATASAASPLTFPTLDDFIPPHLQRWPHHSQPARASGSFAPISQTPPSFSPPPPLVPPAPEDLRRVSEPDLTGAVSSTDSSPLLNEVSSSLIGTDSQAFPSVSKPSSAYPSTTIVNPTIVLLQHNREQQKRLSSLSDPVSERRVGEQDSAPTQEKPTSPGKAIEKRAKDDSRRVVKSTQDLSDVSMDEVGIPLRNTERSKDWYKTMFKQIHKLNRDTPEENPYFPTYKFPELPEIQQTSEEDNPYTPTYQFPASTPSPKSEDDDSDLYSPRYSFSEDTKSPLSVPRSKSEMSYIDGEKVVKRSATLPLPARSSSLKSSSERNDWEPPDKKVDTRKYRAEPKSIYEYQPGKSSVLTNEKMSRDISPEEIDLKNEPWYKFFSELEFGKPPPKKIWDYTPGDCSILPREDRKTNLDKDLSLCQTELEADLEKMETLNKAPSANVPQSSAISPTPEISSETPGYIYSSNFHAVKRESDGAPGDLTSLENERQIYKSVLEGGDIPLQGLSGLKRPSSSASTKDSESPRHFIPADYLESTEEFIRRRHDDKEKLLADQRRLKREQEEADIAARRHTGVIPTHHQFITNERFGDLLNIDDTAKRKSGSEMRPARAKFDFKAQTLKELPLQKGDIVYIYKQIDQNWYEGEHHGRVGIFPRTYIELLPPAEKAQPKKLTPVQVLEYGEAIAKFNFNGDTQVEMSFRKGERITLLRQVDENWYEGRIPGTSRQGIFPITYVDVIKRPLVKNPVDYMDLPFSSSPSRSATASPQFSSHSKLITPAPSSLPHSRRALSPEMHAVTSEWISLTVGVPGRRSLALTPPLPPLPEASIYNTDHLALSPRASPSLSLSLPHLSWSDRPTPRSVASPLALPSPHKTYSLAPTSQASLHMNGDGGVHTPSSGIHQDSFLQLPLGSSDSVISQLSDAFSSQSKRQPWREESGQYERKAERGAGERGPGGPKISKKSCLKPSDVVRCLSTEQRLSDLNTPEESRPGKPLGSAFPGSEAEQTERHRGGEQAGRKAARRGGSQQPQAQQRRVTPDRSQTSQDLFSYQALYSYIPQNDDELELRDGDIVDVMEKCDDGWFVGTSRRTKQFGTFPGNYVKPLYL [SORBS1] | -0.0532 | 0.424 | -0.134 | 4.08 | – | –
MEREPGAAGVRRALGRRLEAVLASRSEANAVFDILAVLQSEDQEEIQEAVRTCSRLFGALLERGELFVGQLPSEEMVMTGSQGATRKYKVWMRHRYHSCCNRLGELLGHPSFQVKELALSALLKFVQLEGAHPLEKSKWEGNYLFPRELFKLVVGGLLSPEEDQSLLLSQFREYLDYDDTRYHTMQAAVDAVARVTGQHPEVPPAFWNNAFTLLSAVSLPRREPTVSSFYVKRAELWDTWKVAHLKEHRRVFQAMWLSFLKHKLPLSLYKKVLLIVHDAILPQLAQPTLMIDFLTRACDLGGALSLLALNGLFILIHKHNLEYPDFYRKLYGLLDPSVFHVKYRARFFHLADLFLSSSHLPAYLVAAFAKRLARLALTAPPEALLMVLPFICNLLRRHPACRVLVHRPHGPELDADPYDPGEEDPAQSRALESSLWELQALQRHYHPEVSKAASVINQALSMPEVSIAPLLELTAYEIFERDLKKKGPEPVPLEFIPAQGLLGRPGELCAQHFTLS [NOC4L] | -1.47 | 0.579 | -3.25e-17 | 3.03e-17 | – | –
PIKFYVE | -0.0952 | -0.153 | 0.473 | 0.726 | – | –
MPFLHGFRRIIFEYQPLVDAILGSLGIQDPERQESLDRPSYVASEESRILVLTELLERKAHSPFYQEGVSNALLKMAELGLTRAADVLLRHGANLNFEDPVTYYTALHIAVLRNQPDMVELLVHHGADVNRRDRIHESSPLDLASEEPERLPCLQRLLDLGADVNAADKHGKTALLHALASSDGVQIHNTENIRLLLEGGADVKATTKDGDTVFTCIIFLLGETVGGDKEEAQMINRFCFQVTRLLLAHGADPSECPAHESLTHICLKSFKLHFPLLRFLLESGAAYNCSLHGASCWSGFHIIFERLCSHPGCTEDESHADLLRKAETVLDLMVTNSQKLQLPENFDIHPVGSLAEKIQALHFSLRQLESYPPPLKHLCRVAIRLYLQPWPVDVKVKALPLPDRLKWYLLSEHSGSVEDDI [ASB6] | 0.206 | 0.0228 | 0.0535 | 0.637 | – | –
MLLWPLRGWAARALRCFGPGSRGSPASGPGPRRVQRRAWPPDKEQEKEKKSVICVEGNIASGKTTCLEFFSNATDVEVLTEPVSKWRNVRGHNPLGLMYHDASRWGLTLQTYVQLTMLDRHTRPQVSSVRLMERSIHSARYIFVENLYRSGKMPEVDYVVLSEWFDWILRNMDVSVDLIVYLRTNPETCYQRLKKRCREEEKVIPLEYLEAIHHLHEEWLIKGSLFPMAAPVLVIEADHHMERMLELFEQNRDRILTPENRKHCP [TK2] | -0.273 | 0.0925 | -2.93 | -2.11 | – | –
MAGVGDAAAPGEGGGGGVDGPQRDGRGEAEQPGGSGGQGPPPAPQLTETLGFYESDRRRERRRGRTELSLLRFLSAELTRGYFLEHNEAKYTERRERVYTCLRIPRELEKLMVFGIFLCLDAFLYVFTLLPLRVFLALFRLLTLPCYGLRDRRLLQPAQVCDILKGVILVICYFMMHYVDYSMMYHLIRGQSVIKLYIIYNMLEVADRLFSSFGQDILDALYWTATEPKERKRAHIGVIPHFFMAVLYVFLHAILIMVQATTLNVAFNSHNKSLLTIMMSNNFVEIKGSVFKKFEKNNLFQMSNSDIKERFTNYVLLLIVCLRNMEQFSWNPDHLWVLFPDVCMVIASEIAVDIVKHAFITKFNDITADVYSEYRASLAFDLVSSRQKNAYTDYSDSVARRMGFIPLPLAVLLIRVVTSSIKVQGILSYACVILFYFGLISLKVLNSIVLLGKSCQYVKEAKMEEKLSNPPATCTPGKPSSKSQNKCKPSQGLSTEENLSASITKQPIHQKENIIPLLVTSNSDQFLTTPDGDEKDITQDNSELKHRSSKKDLLEIDRFTICGNRID [TAPT1] | -0.313 | 0.0176 | -2.91 | -4.92 | – | –
SNRPF | -1.06 | -0.0169 | -0.0433 | -0.451 | – | –
MEGVSALLARCPTAGLAGGLGVTACAAAGVLLYRIARRMKPTHTMVNCWFCNQDTLVPYGNRNCWDCPHCEQYNGFQENGDYNKPIPAQYLEHLNHVVSSAPSLRDPSQPQQWVSSQVLLCKRCNHHQTTKIKQLAAFAPREEGRYDEEVEVYRHHLEQMYKLCRPCQAAVEYYIKHQNRQLRALLLSHQFKRREADQTHAQNFSSAVKSPVQVILLRALAFLACAFLLTTALYGASGHFAPGTTVPLALPPGGNGSATPDNGTTPGAEGWRQLLGLLPEHMAEKLCEAWAFGQSHQTGVVALGLLTCLLAMLLAGRIRLRRIDAFCTCLWALLLGLHLAEQHLQAASPSWLDTLKFSTTSLCCLVGFTAAVATRKATGPRRFRPRRFFPGDSAGLFPTSPSLAIPHPSVGGSPASLFIPSPPSFLPLANQQLFRSPRRTSPSSLPGRLSRALSLGTIPSLTRADSGYLFSGSRPPSQVSRSGEFPVSDYFSLLSGSCPSSPLPSPAPSVAGSVASSSGSLRHRRPLISPARLNLKGQKLLLFPSPPGEAPTTPSSSDEHSPHNGSLFTMEPPHVPRKPPLQDVKHALDLRSKLERGSACSNRSIKKEDDSSQSSTCVVDTTTRGCSEEAATWRGRFGPSLVRGLLAVSLAANALFTSVFLYQSLR [TMEM201] | -0.162 | 0.283 | 0.522 | 0.638 | – | –
MRPPACWWLLAPPALLALLTCSLAFGLASEDTKKEVKQSQDLEKSGISRKNDIDLKGIVFVIQSQSNSFHAKRAEQLKKSILKQAADLTQELPSVLLLHQLAKQEGAWTILPLLPHFSVTYSRNSSWIFFCEEETRIQIPKLLETLRRYDPSKEWFLGKALHDEEATIIHHYAFSENPTVFKYPDFAAGWALSIPLVNKLTKRLKSESLKSDFTIDLKHEIALYIWDKGGGPPLTPVPEFCTNDVDFYCATTFHSFLPLCRKPVKKKDIFVAVKTCKKFHGDRIPIVKQTWESQASLIEYYSDYTENSIPTVDLGIPNTDRGHCGKTFAILERFLNRSQDKTAWLVIVDDDTLISISRLQHLLSCYDSGEPVFLGERYGYGLGTGGYSYITGGGGMVFSREAVRRLLASKCRCYSNDAPDDMVLGMCFSGLGIPVTHSPLFHQARPVDYPKDYLSHQVPISFHKHWNIDPVKVYFTWLAPSDEDKARQETQKGFREEL [B3GLCT] | 0.0765 | -0.0692 | 1.99 | 2.59 | – | –
MFSD12 | -0.246 | -0.237 | 0.154 | 0.3 | – | –
